Source: US20200347137A1

Target: PD-L1 recombinant protein (human) (UniProt Q9NZQ7)
Experiment: ForteBio Octet RED96, PD-L1 immobilised, antibody in solution

Chain of PD-L1 recombinant protein (human) (Q9NZQ7 19-238 limits assumed): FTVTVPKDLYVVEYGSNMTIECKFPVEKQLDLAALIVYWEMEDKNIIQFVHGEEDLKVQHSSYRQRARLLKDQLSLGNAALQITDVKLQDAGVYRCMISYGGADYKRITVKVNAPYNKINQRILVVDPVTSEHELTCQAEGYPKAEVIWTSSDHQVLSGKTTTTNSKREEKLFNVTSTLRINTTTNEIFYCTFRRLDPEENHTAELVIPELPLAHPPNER

B1: PL230C6 scFv-Fc (Fc fusion, part only; not given: linker and Fc, part only)
chain, part: QSVEESGGGLVQPGGSLRLSCTASGIDLNTYDMIWVRQAPGKGLEWVGIITYSGSRYYANWAKGRFTISKDNTKNTVYLQMNSLRAEDTAVYYCARDYMSGSHLWGQGTLVTVSSGGGGSGGGGSGGGGSGGGGSAYDMTQSPSSVSASVGDRVTIKCQASEDIYSFLAWYQQKPGKAPKLLIHSASSLASGVPSRFSGSGSGTDFTLTISSLQPEDFATYYCQQGYGKNNVDNAFGGGTKVEIK
Binder B1 has a Kd of 0.917 nM, a koff of 0.000461 s⁻¹ and a kon of 503000 M⁻¹ s⁻¹.

B2: PL221G5 scFv-Fc (Fc fusion, part only; not given: linker and Fc, part only)
chain, part: EVQLLESGGGLVQPGGSLRLSCAASGFSFSSGYDMCWVRQAPGKGLEWIACIAAGSAGITYDANWAKGRFTISRDNSKNTLYLQMNSLRAEDTAVYYCARSAFSFDYAMDLWGQGTLVTVSSGGGGSGGGGSGGGGSGGGGSDIQMTQSPSTLSASVGDRVTITCQASQSISSHLNWYQQKPGKAPKLLIYKASTLASGVPSRFSGSGSGTEFTLTISSLQPDDFATYYCQQGYSWGNVDNVFGGGTKVEIK
For B2, the Kd was 0.597 nM, the koff was 0.000303 s⁻¹ and the kon was 508000 M⁻¹ s⁻¹.

B3: PL004B9 scFv-Fc (Fc fusion, part only; not given: linker and Fc, part only)
chain, part: EVQLVESGGGLVQPGGSLRLSCTVSGIDLSVINMGWVRQAPGKGLEWIGTITYVGNTYYASWAKGRFTISKTSTTVDLKITSPTTEDTAVYYCARESGTIYYSYFNLWGQGTLVTVSSGGGGSGGGGSGGGGSGGGGSAFELTQSPSSLSASVGDRVTIKCQASESISNYLSWYQQIPGKVPKLLIYYASNLASGVPSRFSGSGSGTDFTLTISSLQPEDVATYYCQSYYGGGSAYTFGGGTKVEIK
In the case of B3, the Kd is reported as 1.42 nM, the koff is reported as 0.00055 s⁻¹ and the kon is reported as 387000 M⁻¹ s⁻¹.
